Experimental data reported in patent US20170290876A1 (Novartis, published 2017).
Residue numbers refer to the chain shown, from its start. In names and notes the source's numbering stands.

T1: human VEGF (human, UniProt P15692 207-395, biotinylated (site not stated))
T1 construct: Biotinylated human VEGF generated internally; also called hVEGF; hVEGF-biotin
T1 sequence: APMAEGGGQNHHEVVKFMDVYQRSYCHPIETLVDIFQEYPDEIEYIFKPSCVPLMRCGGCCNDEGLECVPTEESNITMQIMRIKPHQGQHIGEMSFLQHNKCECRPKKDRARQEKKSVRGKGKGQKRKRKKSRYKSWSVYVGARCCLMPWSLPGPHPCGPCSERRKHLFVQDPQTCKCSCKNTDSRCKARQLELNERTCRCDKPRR

B1: NVS4 heavy chain variant D31N (Fab, V domains shown)
VH: EVQLVESGGGLVQPGGSLRLSCTASGFSLTNYYYMTWVRQAPGKGLEWVGFIDPDDDPYYATWAKGRFTISRDNSKNTLYLQMNSLRAEDTAVYYCAGGDHNSGWGLDIWGQGTLVTVSS
VL: EIVMTQSPSTLSASVGDRVIITCQASEIIHSWLAWYQQKPGKAPKLLIYLASTLASGVPSRFSGSGSGAEFTLTISSLQPDDFATYYCQNVYLASTNGANFGQGTKLTVLK
notes: CDR variant of NVS4
B2: NVS4 heavy chain variant D108N (Fab, V domains shown)
VH: B1 VH with N31D, D108N
VL: B1 VL
notes: CDR variant of NVS4
B3: NVS4 heavy chain variant D100N + H101K (Fab, V domains shown)
VH: B1 VH with N31D, D100N, H101K
VL: B1 VL
notes: CDR variant of NVS4
B4: NVS4 heavy chain variant N102K (Fab, V domains shown)
VH: B1 VH with N31D, N102K
VL: B1 VL
notes: CDR variant of NVS4
B5: NVS4 heavy chain variant D55N + D56N (Fab, V domains shown)
VH: B1 VH with N31D, D55N, D56N
VL: B1 VL
notes: CDR variant of NVS4
B6: NVS4 heavy chain variant D55Q + D56N (Fab, V domains shown)
VH: B1 VH with N31D, D55Q, D56N
VL: B1 VL
notes: CDR variant of NVS4
B7: NVS4 heavy chain variant D31S (Fab, V domains shown)
VH: B1 VH with N31S
VL: B1 VL
notes: CDR variant of NVS4
B8: NVS4 heavy chain variant H101K (Fab, V domains shown)
VH: B1 VH with N31D, H101K
VL: B1 VL
notes: CDR variant of NVS4
B9: NVS4 heavy chain variant D55Q (Fab, V domains shown)
VH: B1 VH with N31D, D55Q
VL: B1 VL
notes: CDR variant of NVS4
B10: NVS4 heavy chain variant D56N (Fab, V domains shown)
VH: B1 VH with N31D, D56N
VL: B1 VL
notes: CDR variant of NVS4
B11: NVS4 heavy chain variant D100N (Fab, V domains shown)
VH: B1 VH with N31D, D100N
VL: B1 VL
notes: CDR variant of NVS4
B12: NVS4 heavy chain variant D31S + Y32K (Fab, V domains shown)
VH: B1 VH with N31S, Y32K
VL: B1 VL
notes: CDR variant of NVS4
B13: NVS4 heavy chain variant D57N (Fab, V domains shown)
VH: B1 VH with N31D, D57N
VL: B1 VL
notes: CDR variant of NVS4
B14: NVS4 heavy chain variant D55N (Fab, V domains shown)
VH: B1 VH with N31D, D55N
VL: B1 VL
notes: CDR variant of NVS4
B15: NVS4 heavy chain variant D108Q (Fab, V domains shown)
VH: B1 VH with N31D, D108Q
VL: B1 VL
notes: CDR variant of NVS4

Biological target: T1, human VEGF
Assay: Biacore SPR, hVEGF

Binder | Kd | koff | kon
B1 | 0.00409 nM | 4.7e-05 s⁻¹ | 1.15e+07 M⁻¹ s⁻¹
B2 | 0.00985 nM | 5.73e-05 s⁻¹ | 5.82e+06 M⁻¹ s⁻¹
B3 | 0.368 nM | 0.000363 s⁻¹ | 983000 M⁻¹ s⁻¹
B4 | 0.0169 nM | 4.84e-05 s⁻¹ | 4.77e+06 M⁻¹ s⁻¹
B5 | 0.108 nM | 0.000951 s⁻¹ | 8.82e+06 M⁻¹ s⁻¹
B6 | 0.0909 nM | 0.000656 s⁻¹ | 7.22e+06 M⁻¹ s⁻¹
B7 | 0.00886 nM | 4.67e-05 s⁻¹ | 5.27e+06 M⁻¹ s⁻¹
B8 | 0.593 nM | 0.000773 s⁻¹ | 1.3e+06 M⁻¹ s⁻¹
B9 | 0.0823 nM | 0.000541 s⁻¹ | 6.57e+06 M⁻¹ s⁻¹
B10 | 0.00765 nM | 4.84e-05 s⁻¹ | 6.33e+06 M⁻¹ s⁻¹
B11 | 0.00549 nM | 2.57e-05 s⁻¹ | 4.68e+06 M⁻¹ s⁻¹
B12 | 0.185 nM | 0.000958 s⁻¹ | 5.18e+06 M⁻¹ s⁻¹
B13 | 0.132 nM | 0.0014 s⁻¹ | 1.06e+07 M⁻¹ s⁻¹
B14 | 0.103 nM | 0.000654 s⁻¹ | 6.35e+06 M⁻¹ s⁻¹
B15 | 0.00668 nM | 4.54e-05 s⁻¹ | 6.8e+06 M⁻¹ s⁻¹
